Measurements taken from US9688764B2, “Methods of treating breast cancer by administering anti-human prolactin receptor (PRLR) antibodies” (REGENERON PHARMACEUTICALS, INC., priority 2013, dated 2017).

T1: HEK293/mPRLR (Mus musculus, UniProt Q08501)
T1 construct: HA; expressed in transfected cells; host or cells: HEK293
T1 sequence (Q08501 20-608): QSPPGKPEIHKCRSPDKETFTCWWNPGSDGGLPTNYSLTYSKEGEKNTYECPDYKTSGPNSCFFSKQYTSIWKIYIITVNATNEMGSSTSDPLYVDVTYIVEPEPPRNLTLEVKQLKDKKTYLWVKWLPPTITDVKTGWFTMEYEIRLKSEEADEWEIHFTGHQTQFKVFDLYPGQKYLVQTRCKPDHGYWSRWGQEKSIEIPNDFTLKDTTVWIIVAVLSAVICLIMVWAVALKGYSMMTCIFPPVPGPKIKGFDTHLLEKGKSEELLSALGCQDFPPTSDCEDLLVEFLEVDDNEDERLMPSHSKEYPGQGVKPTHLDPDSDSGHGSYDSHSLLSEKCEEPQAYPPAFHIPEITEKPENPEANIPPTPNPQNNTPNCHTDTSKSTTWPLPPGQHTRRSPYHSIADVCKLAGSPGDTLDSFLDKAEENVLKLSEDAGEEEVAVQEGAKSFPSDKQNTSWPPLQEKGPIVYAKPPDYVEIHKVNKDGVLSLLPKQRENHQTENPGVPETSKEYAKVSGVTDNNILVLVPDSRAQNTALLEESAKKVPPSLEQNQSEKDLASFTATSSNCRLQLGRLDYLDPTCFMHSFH

T2: T47D (native PRLR expressing cell line) (Homo sapiens, UniProt P16471)
T2 construct: a native PRLR expressing cell line (T47D); endogenous in cells; host or cells: T47D
T2 sequence (P16471 25-622): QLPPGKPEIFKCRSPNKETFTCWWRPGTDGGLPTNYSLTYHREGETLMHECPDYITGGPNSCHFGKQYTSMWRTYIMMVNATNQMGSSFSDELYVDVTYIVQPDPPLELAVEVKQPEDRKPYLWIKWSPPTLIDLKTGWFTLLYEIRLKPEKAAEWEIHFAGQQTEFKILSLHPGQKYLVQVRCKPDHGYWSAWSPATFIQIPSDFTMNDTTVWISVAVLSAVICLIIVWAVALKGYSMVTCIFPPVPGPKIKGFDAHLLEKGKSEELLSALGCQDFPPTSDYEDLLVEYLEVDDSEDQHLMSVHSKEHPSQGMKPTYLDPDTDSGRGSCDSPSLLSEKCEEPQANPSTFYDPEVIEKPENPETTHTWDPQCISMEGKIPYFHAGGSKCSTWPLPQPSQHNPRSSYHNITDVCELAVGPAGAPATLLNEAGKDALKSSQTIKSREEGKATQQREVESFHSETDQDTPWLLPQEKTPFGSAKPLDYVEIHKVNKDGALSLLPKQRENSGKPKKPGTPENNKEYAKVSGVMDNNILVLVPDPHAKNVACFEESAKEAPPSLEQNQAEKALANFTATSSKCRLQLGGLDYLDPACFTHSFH

T3: HEK293/hPRLR (Homo sapiens, UniProt P16471)
T3 construct: HA; expressed in transfected cells; host or cells: HEK293
T3 sequence (P16471 25-622): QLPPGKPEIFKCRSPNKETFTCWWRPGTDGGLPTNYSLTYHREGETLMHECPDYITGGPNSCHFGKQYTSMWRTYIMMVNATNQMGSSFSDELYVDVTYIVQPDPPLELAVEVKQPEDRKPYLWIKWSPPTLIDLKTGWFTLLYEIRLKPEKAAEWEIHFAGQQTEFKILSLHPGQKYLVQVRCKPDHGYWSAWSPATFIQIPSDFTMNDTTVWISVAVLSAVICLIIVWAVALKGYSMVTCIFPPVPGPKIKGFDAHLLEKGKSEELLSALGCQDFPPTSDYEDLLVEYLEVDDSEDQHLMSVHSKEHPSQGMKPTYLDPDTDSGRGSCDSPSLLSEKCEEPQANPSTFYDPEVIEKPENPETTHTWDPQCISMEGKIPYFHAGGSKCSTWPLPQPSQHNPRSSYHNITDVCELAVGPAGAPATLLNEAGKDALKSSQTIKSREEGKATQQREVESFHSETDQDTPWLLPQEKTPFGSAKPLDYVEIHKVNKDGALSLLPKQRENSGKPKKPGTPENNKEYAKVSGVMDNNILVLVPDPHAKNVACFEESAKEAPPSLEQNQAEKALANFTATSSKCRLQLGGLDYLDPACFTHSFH

T4: PRLR-expressing cells (T47D) (Homo sapiens, UniProt P16471)
T4 construct: a native PRLR expressing cell line (T47D); endogenous in cells; host or cells: T47D
T4 sequence (P16471 25-622): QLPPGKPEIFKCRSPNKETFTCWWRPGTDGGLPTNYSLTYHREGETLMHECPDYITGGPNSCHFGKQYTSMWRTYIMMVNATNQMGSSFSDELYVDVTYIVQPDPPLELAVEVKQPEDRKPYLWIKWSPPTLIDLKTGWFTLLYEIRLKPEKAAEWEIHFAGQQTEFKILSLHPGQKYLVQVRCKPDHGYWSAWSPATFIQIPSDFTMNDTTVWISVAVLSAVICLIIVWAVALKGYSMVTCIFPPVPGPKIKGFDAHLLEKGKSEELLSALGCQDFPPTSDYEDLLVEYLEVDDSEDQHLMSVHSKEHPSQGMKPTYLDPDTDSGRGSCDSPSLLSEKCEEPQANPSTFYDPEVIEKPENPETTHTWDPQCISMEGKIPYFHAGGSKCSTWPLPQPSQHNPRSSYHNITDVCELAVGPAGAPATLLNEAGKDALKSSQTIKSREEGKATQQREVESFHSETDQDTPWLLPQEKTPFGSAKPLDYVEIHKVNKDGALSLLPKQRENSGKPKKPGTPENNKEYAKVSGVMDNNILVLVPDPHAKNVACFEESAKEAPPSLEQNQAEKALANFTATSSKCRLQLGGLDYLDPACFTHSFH


Assays:
HEK293/mPRLR = biological target: T1, HEK293/mPRLR; test: FACS cell surface binding
Protocol: (§1) The ability of anti-PRLR antibodies to selectively bind PRLR expressing cell lines was next determined. Human, monkey macaca fascicularis, and mouse PRLR constructs with an HA tag were stably introduced into HEK293 cells via Lipofectamine 2000-mediated transfection methodology. Transfectants (HEK293/hPRLR, HEK293/mfPRLR and HEK293/mPRLR) were selected for at least 2 weeks in complete growth media plus G418.
(§2) Cell surface expression of PRLR on 293/hPRLR cells was assessed via FACS analysis. Briefly, 1×10^5 cells were incubated with 10 μg/ml of Control antibody I, or an isotype control for 30 min on ice in antibody dilution buffer. Following two washes with antibody dilution buffer, cells were incubated with 10 μg/ml of PE conjugated anti-human secondary antibodies for 30 min on ice. Following two additional washes, samples were run on a Hypercyt® cytometer and analyzed in FORECYT™ (IntelliCyt, Albuquerque, N. Mex.). The mean fluorescence intensities (MFI) were expressed as fold change above isotype control levels (background). FACS binding confirmed that Control I selectively bound to 293/hPRLR expressing cells with MFIs that were 30 fold above background (isotype ctrl) levels and less than 2 fold binding on parental cells.
(§3) Next, the anti-PRLR antibodies of the present invention were tested via FACS for selective binding to the engineered overexpressing PRLR HEK293 cell lines, as well as to non-expressing HEK293 cells and a native PRLR expressing cell line (T47D).

[1] = biological target: T2, T47D (native PRLR expressing cell line); test: FACS cell surface binding
Protocol: as §1, §2, §3

HEK293/hPRLR = biological target: T3, HEK293/hPRLR; test: FACS cell surface binding
Protocol: as §1, §2, §3

[2] = tested on: HEK293 (non-expressing parental cells); test: FACS cell surface binding
Protocol: as §1, §2, §3

[3] = biological target: T4, PRLR-expressing cells (T47D); test: Antibody binding and internalization by PRLR-expressing cells (imaging); type: cell-based; conditions: [mAb] (0.67 nM); for % Internalization relative to Control I: alexa488 intensity in intracellular vesicles, 1 h at 37° C.; for % Total Binding relative to Control I: whole cell alexa488 intensity at 37° C.
Protocol: In this Example, the internalization of anti-PRLR antibodies by PRLR-expressing cells (T47D) was assessed. Briefly, 20,000 T47D cells were seeded in collagen coated 96 well plates. […] Cells were then incubated with alexa488 conjugated anti-hFc Fab secondary antibodies for 30 minutes on ice followed by two additional PBS washes. Antibodies were allowed to internalize for 1 h at 37° C. in internalization buffer (PBS+2% FBS) or remained at 4° C. Cells were fixed in 4% formaldehyde, nuclei were stained with DRAQ5 (Cell signaling), and images were acquired on the ImageXpress micro XL (Molecular Devices). Whole cell alexa488 intensity at 37° C. (Binding) and the alexa488 intensity in the intracellular vesicles at 37° C. (Internalization) were determined via Columbus image analysis software (PerkinElmer).

HEK293/mfPRLR = test: FACS cell surface binding; design: species or system macaca fascicularis
Sequence of HEK293/mfPRLR (as listed by the source): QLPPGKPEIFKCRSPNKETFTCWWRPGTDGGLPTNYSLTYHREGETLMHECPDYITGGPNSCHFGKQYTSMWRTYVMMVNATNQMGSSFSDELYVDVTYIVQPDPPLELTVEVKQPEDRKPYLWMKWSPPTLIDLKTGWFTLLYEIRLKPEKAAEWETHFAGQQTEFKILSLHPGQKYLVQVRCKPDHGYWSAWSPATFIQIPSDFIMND
Protocol: as §1, §2, §3

Row | Molecule | FACS Cell Binding (Fold Above Background) (HEK293/mPRLR) | FACS Cell Binding (Fold Above Background) [1] [Fold Above Background] | FACS Cell Binding (Fold Above Background) (HEK293/hPRLR) | FACS Cell Binding (Fold Above Background) [2] [Fold Above Background] | % Internalization relative to Control I [3] [%] | % Total Binding relative to Control I [3] [%] | FACS Cell Binding (Fold Above Background) (HEK293/mfPRLR)
1 | H1H6785P: anti-PRLR antibody, human IgG1 Fc; HCVR/LCVR SEQ ID NOs 98/106 (antibody, V domains shown, human IgG1 Fc) VH: EVQLVESGGGLVQPGGSLRLSCAASGFTFSSYEMNWVRQAPGKGLEWISYISSRGGTIYYADSIKGRFTIYRDNARNSLYLQMNSLRAEDTAIYYCARLSGVDIFDIWGQGTMVTVSS VL: DIQMTQSPSSLSASVGDRVTITCRASQGISNYLAWYQQKPGKVPKLLIYFASTLQSGVPSRFSGGGSGTDFTLTISSLQPEDVATYYCQRYNSAPLTFGGGTKVEIK | 2 | 40 | 37 | 1 | 169.1 | 168.0 | 26
2 | H1H6790P: anti-PRLR antibody, human IgG1 Fc; HCVR/LCVR SEQ ID NOs 114/122 (antibody, V domains shown, human IgG1 Fc) VH: EVQLVESGGGLVQPGGSLRLSCAASGFTFSSYAMTWVRQAPGKGLEWVSAITGSVGNTYYADSVKGRFTISRDNSKNTLYLQMNSLGAEDTAEYYCAKGAGMTTNWYLDLWGRGTLVTVSS VL: DIVMTQSPDSLAVSLGARATINCKSSQSVLYSSNNQNYLTWYQQKPGQPPKLLIKWASTRESGVPDRFSGSGSGTDFTLTISSLQAEDVAVYYCQQYASSPYTFGQGTKLEIK | 1 | 34 | 37 | 1 | 146.9 | 122.8 | 24
3 | H1H6792P: anti-PRLR antibody, human IgG1 Fc; HCVR/LCVR SEQ ID NOs 130/138 (antibody, V domains shown, human IgG1 Fc) VH: EVQLVESGGGLVQPGRSLRLSCAASGFTLDDHAVHWVRQAPGKGLEWVSGISWNSVYIDYADSVKGRFTIFRDNAKNSLYLQMNSLRAEDTAFYYCARDIEGARDYWGQGTLVTVSS VL: DIQMTQSPSSLSASVGDRVTITCRASQGIRNDLGWYQQKPGKAPKRLIYAASSLQSGVPSRFSGSGYGTEFTLTISSLQPEDFAPYYCLQHNSYPLTFGGGTKVEIK | 3 | 37 | 37 | 1 | 155.9 | 110.6 | 28
4 | H1H6793P: anti-PRLR antibody, human IgG1 Fc; HCVR/LCVR SEQ ID NOs 146/154 (antibody, V domains shown, human IgG1 Fc) VH: EVQLVESGGGLVQPGGSLRLSCAASGFSFSIYAMSWFRQAPGKGLEWVSAINGRGDGTHYADSVKGRFTISRDNSKTTLYLQMSSLRAEDTAVYYCAKPVMSTNGFDIWGQGTMVTVSS VL: DIQMTQSPSTLSASVGDRVTITCRASQSISSWLAWYQLKPGKAPKLLIYKASNLESGVPSRFSGSGSGTEFTLTISSLQPDDFATYYCQQYNIYWTFGQGTKVEIK | 2 | 43 | 2 | 2 | 179.9 | 177.9 | 32
5 | H1H6795P: anti-PRLR antibody, human IgG1 Fc; HCVR/LCVR SEQ ID NOs 162/170 (antibody, V domains shown, human IgG1 Fc) VH: QVQLVQSGAEVKKPGASVKVSCKASGYTFGTSGITWVRQAPGQGLEWMGWSSAYNGKTDYAQKFQDRVTMTTDTSTTTGYMEMRSLTSDDTAVYYCTTVVRRPFDFWGQGTLVTVSS VL: DIQMTQSPSSLSASVGDRVTITCRASQDINNFLAWFQQKPGKAPKSLIYAASSLQSGVPSKFSGGGSGTDFALTISSLQPEDFATYYCQQYSSYPITFGQGTRLEIK | 1 | 34 | 1 | 1 | 150.7 | 123.4 | 22
6 | H1H6797P: anti-PRLR antibody, human IgG1 Fc; HCVR/LCVR SEQ ID NOs 178/186 (antibody, V domains shown, human IgG1 Fc) VH: EVQLVESGGGLVQPGGSLRLSCIVSGFTFSGSWMSWVRQLPGKGLEWVANIKEDGSDSYYVDSVEGRFTISRDNAKSSLYLQMNSLRVDDTAVYFCARARTVPLHYWGQGTLVTVSS VL: DIQMTQSPSTLSASVGDRVTITCRASQSINIWLAWYQQKPGKAPKLLIYRASYLESGVPSSFAGGGSGTEFTLTISSLQPDDFGTYYCQHYNSYPFTFGQGTKLEIK | 2 | 38 | 1 | 1 | 145.2 | 151.2 | 25
